Data reported in publication doi:10.1101/2020.02.11.944462.

Tests used:
[1] = biological target: 2019-nCoV S prefusion-stabilized ectodomain (residues 1-1208, two proline substitutions, GSAS at the (2019-nCoV | bacteriophage T4)); assay: cryo-EM structure
[2] = biological target: 2019-nCoV S prefusion-stabilized ectodomain (residues 1-1208, two proline substitutions, GSAS at the (2019-nCoV | bacteriophage T4)); assay: SPR; […], Biacore X100; 10 mM HEPES pH 8.0, 150 mM NaCl, 0.05% Tween 20; […]; 1:1 binding model

human angiotensin-converting enzyme 2 (ACE2), residues 1-615, untagged, sequence (Q9BYF1 18-615): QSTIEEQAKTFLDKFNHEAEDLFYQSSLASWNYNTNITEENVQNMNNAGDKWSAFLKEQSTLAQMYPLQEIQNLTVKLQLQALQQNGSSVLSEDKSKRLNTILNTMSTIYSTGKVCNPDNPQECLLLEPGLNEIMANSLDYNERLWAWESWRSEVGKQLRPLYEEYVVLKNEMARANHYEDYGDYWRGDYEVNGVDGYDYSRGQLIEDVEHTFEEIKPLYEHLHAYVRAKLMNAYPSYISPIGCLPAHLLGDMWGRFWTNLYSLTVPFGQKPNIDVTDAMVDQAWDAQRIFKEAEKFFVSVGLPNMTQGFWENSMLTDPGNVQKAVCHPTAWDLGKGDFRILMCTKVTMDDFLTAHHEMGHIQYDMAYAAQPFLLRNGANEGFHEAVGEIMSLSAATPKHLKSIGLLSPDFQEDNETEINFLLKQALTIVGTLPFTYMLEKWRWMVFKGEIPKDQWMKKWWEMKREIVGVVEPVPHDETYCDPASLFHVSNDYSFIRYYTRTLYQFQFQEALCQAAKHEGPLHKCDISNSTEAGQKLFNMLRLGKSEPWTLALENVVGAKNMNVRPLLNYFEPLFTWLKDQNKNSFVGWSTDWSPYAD

Row | Substance | stoichiometry N [1] | Kd [2] [nM]
1 | 2019-nCoV S prefusion-stabilized ectodomain (residues 1-1208, two proline substitutions, GSAS at the (domain or fragment) | 3 | 
2 | human angiotensin-converting enzyme 2 (ACE2), residues 1-615, untagged (from UniProt Q9BYF1 18-615) (receptor) |  | 15
